From US20260146091A1 (FUNDACI N PARA LA INVESTIGACI N M DICA APLICADA, published 2026)

Columns and labels:
[1] = molecular target: T1, mPD-L1-Fc (mouse PD-L1 ectodomain fused to human IgG1 Fc, BioLegend) (mouse; human, UniProt Q9EP73 19-239); test: competitive ELISA, mouse PD-1/PD-L1
T1 construct: extracellular domain; Bought from BioLegend; not shown: human IgG1 Fc domain
Procedure: (§1) The ability of nanobodies (Nbs) to inhibit the binding of PD-1 with PD-L1 was evaluated by competitive ELISA. For human molecules, plates were coated with 0.5 μg/mL hPD-1-Fc (R&D, Minneapolis, MN) in PBS o/n at 4° C. […] For mouse molecules, a similar protocol was followed. […] The signal of wells incubated without Nbs or antibodies were considered 100% of PD-1/PD-L1 binding.

[2] = molecular target: T2, biotinylated hPD-L1 fused to human IgG Fc (BPS Bioscience) (human, UniProt Q9NZQ7 19-238, biotinylated (site not stated)); test: competitive ELISA, human PD-1/PD-L1
T2 construct: extracellular domain; Bought from BPS Bioscience; also called human PD-L1
Procedure: as §1

[3] = molecular target: T2, biotinylated hPD-L1 fused to human IgG …; test: competitive ELISA, human PD-1/PD-L1; the reference value of envafolimab (5.25 nM) is from the literature
[4] = molecular target: T3, biotinylated mPD-1-Fc (BPS Bioscience) (mouse; human, UniProt Q02242 25-169, biotinylated (site not stated)); test: competitive ELISA, mouse PD-1/PD-L1
T3 construct: extracellular domain; Bought from BPS Bioscience; also called mouse PD-1
T3 sequence (looked up): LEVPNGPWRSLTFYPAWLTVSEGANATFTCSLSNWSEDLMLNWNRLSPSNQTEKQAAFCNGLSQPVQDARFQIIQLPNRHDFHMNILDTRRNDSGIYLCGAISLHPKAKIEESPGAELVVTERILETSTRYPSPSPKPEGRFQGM
Procedure: as §1

[5] = molecular target: T4, hPD-1-Fc (human PD-1 ectodomain fused to human IgG1 Fc, R&D) (human, UniProt Q15116 25-170); test: competitive ELISA, human PD-1/PD-L1
T4 construct: extracellular domain; Bought from R&D; not shown: human IgG1 Fc domain
Procedure: as §1

T2 sequence (Q9NZQ7 19-238): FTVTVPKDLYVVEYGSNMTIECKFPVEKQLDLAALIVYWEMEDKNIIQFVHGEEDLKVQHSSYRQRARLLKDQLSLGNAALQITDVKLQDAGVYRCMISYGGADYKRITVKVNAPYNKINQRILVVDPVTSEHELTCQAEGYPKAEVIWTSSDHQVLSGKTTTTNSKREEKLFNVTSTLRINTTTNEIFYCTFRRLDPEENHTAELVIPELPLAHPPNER
T4 sequence (Q15116 25-170): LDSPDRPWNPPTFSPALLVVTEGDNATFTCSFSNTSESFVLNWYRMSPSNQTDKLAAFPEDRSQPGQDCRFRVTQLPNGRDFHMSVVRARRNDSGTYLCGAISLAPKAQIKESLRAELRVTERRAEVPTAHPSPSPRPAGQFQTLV
T1 sequence (Q9EP73 19-239): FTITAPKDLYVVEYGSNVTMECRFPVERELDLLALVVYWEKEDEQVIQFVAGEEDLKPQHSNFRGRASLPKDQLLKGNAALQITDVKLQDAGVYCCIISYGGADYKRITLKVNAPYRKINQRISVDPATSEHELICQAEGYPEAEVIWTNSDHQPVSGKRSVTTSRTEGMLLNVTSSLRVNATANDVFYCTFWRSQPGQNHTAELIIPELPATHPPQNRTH

Row | Binder | fold IC50 reduction against monomeric Nb6p [1] [fold] | fold IC50 reduction of the Fc homodimer against monomeric Nb6p [1] [fold] | fold IC50 reduction against monomeric Nb6p [2] [fold] | fold IC50 reduction of the Fc homodimer against monomeric Nb6p [2] [fold] | fold by which the literature IC50 of envafolimab is higher than that of Nb6p-Fc [3] [fold] | fold IC50 reduction against clone RMPI-14 [4] [fold] | fold IC50 reduction against monomeric Nb11 [4] [fold] | fold IC50 reduction against monomeric Nb11 [5] [fold] | fold IC50 reduction against nivolumab [5] [fold] | fold lower IC50 than nivolumab [5] [fold]
1 | Nb6p-Fc (Nb6p fused to mouse IgG2a Fc domain including hinge) (Fc fusion, Fc homodimer, purified on protein A from supernatants of BHK-21 cells electroporated with SFV-Nb6p-Fc RNA; also called dimeric Nb6p) AEVQLVESGGGLVQAGGSLRLSCAAAGRSFNSNAMGWVRQAPGKEREIVAVISATGSYTYYEDSVKGRFTISRDNSKNTVSLQMSSLSSEDTAVYYCAGSRTAALTTIMTLFNYWGQGTQVTVSSPGPRGPTIKPCPPCKCPAPNLLGGPSVFIFPPKIKDVLMISLSPIVTCVVVDVSEDDPDVQISWFVNNVEVHTAQTQTHREDYNSTLRVVSALPIQHQDWMSGKEFKCKVNNKDLPAPIERTISKPKGSVRAPQVYVLPPPEEEMTKKQVTLTCMVTDFMPEDIYVEWTNNGKTELNYKNTEPVLDSDGSYFMYSKLRVEKKNWVERNSYSCSVVHEGLHNHHTTKSFSRTPGK | ~7 | ~8 | ~7 | ~8 | ~10 | – | – | – | – | –
2 | Nb11-Fc (Nb11 fused to mouse IgG1 Fc domain including hinge) (Fc fusion, Fc homodimer, concentrated from supernatants of BHK-21 cells electroporated with SFV-Nb11-Fc RNA; also called dimeric Nb11) AQVQLVQSGGGSVQAGDSLRLSCAVSGHPDSSYSMAWFRQAPGKERELVALISWSGAITHYSDSVKDRFTISRDNAKNEMYLQMDSLKPEDTAVYFCQADDPTSELNQYWGQGTQVTVSSGCKPCICTVPEVSSVFIFPPKPKDVLTITLTPKVTCVVVDISKDDPEVQFSWFVDDVEVHTAQTQPREEQFNSTFRSVSELPIMHQDWLNGKEFKCRVNSAAFPAPIEKTISKTKGRPKAPQVYTIPPPKEQMAKDKVSLTCMITDFFPEDITVEWQWNGQPAENYKNTQPIMDTDGSYFVYSKLNVQKSNWEAGNTFTCSVLHEGLHNHHTEKSLSHSPGK | – | – | – | – | – | 700 | ~40 | ~40 | 10 | 8.6
